Test in all cases: EMSA; 5 mM Mg2+
Common to all, as to settings: protein: recombinant; tags: His (Ni-NTA purified; pMCSG7); chain copies: 2; label: 5' 6-FAM on strand 1; blunt
Background: In EMSA bound probe runs differently from free probe, usually more slowly.

The target of series [1] is T1, Ku D250A (Mycobacterium tuberculosis, UniProt P9WKD9 1-273, D250A).
T1 sequence: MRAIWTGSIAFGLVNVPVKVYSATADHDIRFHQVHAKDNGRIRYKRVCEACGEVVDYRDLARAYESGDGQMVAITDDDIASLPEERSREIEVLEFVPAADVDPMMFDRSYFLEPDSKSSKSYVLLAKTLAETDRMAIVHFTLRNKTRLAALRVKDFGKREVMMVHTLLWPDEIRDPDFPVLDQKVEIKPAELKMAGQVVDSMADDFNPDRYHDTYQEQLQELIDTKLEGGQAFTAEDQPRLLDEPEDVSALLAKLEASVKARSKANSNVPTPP

Series [2] deals with T2, Ku L251A (Mycobacterium tuberculosis, UniProt P9WKD9 1-273, L251A).
T2 sequence: T1 sequence with A250D, L251A

The target in series [3] is T3, Ku R262A (Mycobacterium tuberculosis, UniProt P9WKD9 1-273, R262A).
T3 sequence: T1 sequence with A250D, R262A

The target of series [4] is T4, Ku D247A (Mycobacterium tuberculosis, UniProt P9WKD9 1-273, D247A).
T4 sequence: T1 sequence with D247A, A250D

In series [5] the target is T5, Ku S258A (Mycobacterium tuberculosis, UniProt P9WKD9 1-273, S258A).
T5 sequence: T1 sequence with A250D, S258A

Residue numbers refer to the chain shown, from its start.

B1: 40 bp dsDNA (dsDNA)
DNA 1: CAGGGTAAGTGTGGAGGTGTAGGGAAGGGAATGTTGTCTG
DNA 2: CAGACAACATTCCCTTCCCTACACCTCCACACTTACCCTG
For orientation: Kd means the constant that tells how readily two partners part at equilibrium. Take B1: the Kd was determined as 140 ± 10 nM in series [1]; 1300 ± 190 nM in series [2]; 140 ± 10 nM in series [3]; 160 ± 10 nM in series [4]; 1340 ± 290 nM in series [5].

Source of the values: publication PMC9638933.
